± gives the uncertainty stated by the source.
Tests used:
[1] = melting temperature (ThermoFMN); higher = more thermostable
Procedure: (§1)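 Purified His-tagged ene reductases (1 mg/ml) in 50 mM sodium phosphate pH 7.4 with 0-30% (v/v) organic co-solvent. Melting temperature was measured by the ThermoFMN assay (FMN fluorescence, 20-90 °C at 1 °C/min, inflection point, triplicate). Specific initial activity was measured with 10 mM cyclohex-2-enone and 0.2 mM NAD(P)H (NADH for LacER) as A340 depletion, at room temperature (DMSO, 2-propanol, n-propanol) or 25 °C (EtOH, MeOH), in triplicate. The TsOYE Tm is above the 90 °C measurement range.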

[2] = specific initial activity, cyclohex-2-enone reduction (U mg-1); higher = more active
Procedure: as §1, with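 “reductases” for “reductases (1 mg/ml)”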

[3] = co-solvent: 2-propanol, co-solvent concentration (% v/v): 0
[4] = co-solvent: 2-propanol, co-solvent concentration (% v/v): 5
[5] = co-solvent: 2-propanol, co-solvent concentration (% v/v): 10
[6] = co-solvent: 2-propanol, co-solvent concentration (% v/v): 15
[7] = co-solvent: 2-propanol, co-solvent concentration (% v/v): 20
[8] = co-solvent: 2-propanol, co-solvent concentration (% v/v): 25
[9] = co-solvent: 2-propanol, co-solvent concentration (% v/v): 30
[10] = co-solvent: dimethyl sulfoxide, co-solvent concentration (% v/v): 0
[11] = co-solvent: dimethyl sulfoxide, co-solvent concentration (% v/v): 5
[12] = co-solvent: dimethyl sulfoxide, co-solvent concentration (% v/v): 10
[13] = co-solvent: dimethyl sulfoxide, co-solvent concentration (% v/v): 15
[14] = co-solvent: dimethyl sulfoxide, co-solvent concentration (% v/v): 20
[15] = co-solvent: dimethyl sulfoxide, co-solvent concentration (% v/v): 25
[16] = co-solvent: dimethyl sulfoxide, co-solvent concentration (% v/v): 30
[17] = co-solvent: ethanol, co-solvent concentration (% v/v): 0
[18] = co-solvent: ethanol, co-solvent concentration (% v/v): 5
[19] = co-solvent: ethanol, co-solvent concentration (% v/v): 10
[20] = co-solvent: ethanol, co-solvent concentration (% v/v): 15
[21] = co-solvent: ethanol, co-solvent concentration (% v/v): 20
[22] = co-solvent: ethanol, co-solvent concentration (% v/v): 25
[23] = co-solvent: ethanol, co-solvent concentration (% v/v): 30
[24] = co-solvent: methanol, co-solvent concentration (% v/v): 0
[25] = co-solvent: methanol, co-solvent concentration (% v/v): 5
[26] = co-solvent: methanol, co-solvent concentration (% v/v): 10
[27] = co-solvent: methanol, co-solvent concentration (% v/v): 15
[28] = co-solvent: methanol, co-solvent concentration (% v/v): 20
[29] = co-solvent: methanol, co-solvent concentration (% v/v): 25
[30] = co-solvent: methanol, co-solvent concentration (% v/v): 30
[31] = co-solvent: n-propanol, co-solvent concentration (% v/v): 0
[32] = co-solvent: n-propanol, co-solvent concentration (% v/v): 5
[33] = co-solvent: n-propanol, co-solvent concentration (% v/v): 10
[34] = co-solvent: n-propanol, co-solvent concentration (% v/v): 15
[35] = co-solvent: n-propanol, co-solvent concentration (% v/v): 20
[36] = co-solvent: n-propanol, co-solvent concentration (% v/v): 25
[37] = co-solvent: n-propanol, co-solvent concentration (% v/v): 30

MARKLFTPITIKDMTLKNRIVMSPMCMYSSHEKDGKLTPFHMAHYISRAIGQVGLIIVEASAVNPQGRITDQDLGIWSDEHIEGFAKLTEQVKEQGSKIGIQLAHAGRKAELEGDIFAPSAIAFDEQSATPVEMSAEKVKETVQEFKQAAARAKEAGFDVIEIHAAHGYLIHEFLSPLSNHRTDEYGGSPENRYRFLREIIDEVKQVWDGPLFVRVSASDYTDKGLDIADHIGFAKWMKEQGVDLIDCSSGALVHADINVFPGYQVSFAEKIREQADMATGAVGMITDGSMAEEILQNGRADLIFIGRELLRDPFFARTAAKQLNTEIPAPVQYERGW
melting temperature [1, 3]: 50.7 ± 0.58 °C
melting temperature [1, 4]: 40 ± 1 °C
melting temperature [1, 5]: 36.3 ± 0.58 °C
melting temperature [1, 6]: 34 ± 1 °C
melting temperature [1, 7]: 31.3 ± 0.58 °C
melting temperature [1, 8]: 27.3 ± 0.58 °C
melting temperature [1, 9]: 24.3 ± 3.8 °C
melting temperature [1, 10]: 51 °C
melting temperature [1, 11]: 49.3 ± 0.58 °C
melting temperature [1, 12]: 48 °C
melting temperature [1, 13]: 46.7 ± 0.58 °C
melting temperature [1, 14]: 46 °C
melting temperature [1, 15]: 45 °C
melting temperature [1, 16]: 44 °C
melting temperature [1, 17]: 51 °C
melting temperature [1, 18]: 45 ± 1.7 °C
melting temperature [1, 19]: 42.3 ± 0.58 °C
melting temperature [1, 20]: 38.3 ± 0.58 °C
melting temperature [1, 21]: 35 ± 1.7 °C
melting temperature [1, 22]: 33 ± 1 °C
melting temperature [1, 23]: 31 °C
melting temperature [1, 24]: 51 °C
melting temperature [1, 25]: 48.3 ± 0.58 °C
melting temperature [1, 26]: 43.3 ± 1.5 °C
melting temperature [1, 27]: 40 ± 1.7 °C
melting temperature [1, 28]: 39.3 ± 1.1 °C
melting temperature [1, 29]: 36.7 ± 0.58 °C
melting temperature [1, 30]: 33 ± 1 °C
melting temperature [1, 31]: 51 °C
melting temperature [1, 32]: 43.3 ± 1.1 °C
melting temperature [1, 33]: 35.3 ± 0.58 °C
melting temperature [1, 34]: 29.7 ± 0.58 °C
melting temperature [1, 35]: 28.3 ± 0.58 °C
melting temperature [1, 36]: 27.7 ± 0.58 °C
melting temperature [1, 37]: 26.7 ± 0.58 °C
specific initial activity [2, 3]: 0.49 ± 0.07
specific initial activity [2, 4]: 0.34 ± 0.03
specific initial activity [2, 5]: 0.21 ± 0.01
specific initial activity [2, 6]: 0.16 ± 0.05
specific initial activity [2, 7]: 0.11 ± 0.07
specific initial activity [2, 8]: 0.14 ± 0.03
specific initial activity [2, 9]: 0.06 ± 0.09
specific initial activity [2, 10]: 0.52 ± 0.07
specific initial activity [2, 11]: 0.4 ± 0.01
specific initial activity [2, 12]: 0.33 ± 0.01
specific initial activity [2, 13]: 0.25 ± 0.01
specific initial activity [2, 14]: 0.17 ± 0.02
specific initial activity [2, 15]: 0.1 ± 0.01
specific initial activity [2, 16]: 0.05 ± 0.05
specific initial activity [2, 17]: 0.46 ± 0.03
specific initial activity [2, 18]: 0.33 ± 0.01
specific initial activity [2, 19]: 0.21 ± 0.03
specific initial activity [2, 20]: 0.07 ± 0.02
specific initial activity [2, 21]: 0.03 ± 0.01
specific initial activity [2, 22]: 0.03 ± 0.01
specific initial activity [2, 23]: 0.02 ± 0.01
specific initial activity [2, 24]: 0.51 ± 0.12
specific initial activity [2, 25]: 0.39 ± 0.01
specific initial activity [2, 26]: 0.3 ± 0.01
specific initial activity [2, 27]: 0.13 ± 0.02
specific initial activity [2, 28]: 0.12 ± 0.09
specific initial activity [2, 29]: 0.07 ± 0.05
specific initial activity [2, 30]: 0.05 ± 0.03
specific initial activity [2, 31]: 0.5 ± 0.12
specific initial activity [2, 32]: 0.25 ± 0.02
specific initial activity [2, 33]: 0.17 ± 0.01
specific initial activity [2, 34]: 0.12 ± 0.01
specific initial activity [2, 35]: 0.05 ± 0.03
specific initial activity [2, 36]: 0 ± 0.03
specific initial activity [2, 37]: 0 ± 0.08
